Measured values from patent US20260167721A1 (ABLEXIS, published 2026).

Legend:
[1] = biological target: T1, human CD3 (TCR/CD3 complex on the cell surface) (human, UniProt P07766 23-207; P04234 22-171; P09693 23-182); test: flow cytometry, Jurkat WT cells, 1 ug/mL
T1 construct: whole, on cells; Native CD3 on human Pan-T cells or Jurkat wild-type cells; also called CD3 on Pan-T cells; CD3 on Jurkat WT cells

[2] = biological target: T1, human CD3 (TCR/CD3 complex on the cell …); test: flow cytometry, Pan-T cells, 10 ug/mL
[3] = biological target: T1, human CD3 (TCR/CD3 complex on the cell …); test: flow cytometry, Jurkat WT gMFI over Jurkat KO gMFI, 10 ug/mL
[4] = biological target: T1, human CD3 (TCR/CD3 complex on the cell …); test: flow cytometry, Jurkat WT cells, 10 ug/mL
[5] = biological target: T1, human CD3 (TCR/CD3 complex on the cell …); test: flow cytometry, Jurkat WT gMFI over Jurkat KO gMFI, 1 ug/mL
[6] = biological target: T1, human CD3 (TCR/CD3 complex on the cell …); test: flow cytometry, Pan-T cells, 1 ug/mL

T1 sequence (P07766 23-207, chain 1 of 3): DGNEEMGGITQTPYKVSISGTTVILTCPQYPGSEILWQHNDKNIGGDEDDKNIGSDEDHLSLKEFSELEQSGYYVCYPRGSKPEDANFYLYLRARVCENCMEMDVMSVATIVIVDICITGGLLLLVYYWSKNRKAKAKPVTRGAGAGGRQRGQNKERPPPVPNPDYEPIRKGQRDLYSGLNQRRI
T1 sequence (P04234 22-171, chain 2 of 3): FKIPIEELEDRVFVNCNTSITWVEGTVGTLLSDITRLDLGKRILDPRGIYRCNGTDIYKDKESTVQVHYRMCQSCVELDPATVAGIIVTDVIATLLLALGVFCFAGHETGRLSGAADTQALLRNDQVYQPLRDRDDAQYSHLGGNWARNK
T1 sequence (P09693 23-182, chain 3 of 3): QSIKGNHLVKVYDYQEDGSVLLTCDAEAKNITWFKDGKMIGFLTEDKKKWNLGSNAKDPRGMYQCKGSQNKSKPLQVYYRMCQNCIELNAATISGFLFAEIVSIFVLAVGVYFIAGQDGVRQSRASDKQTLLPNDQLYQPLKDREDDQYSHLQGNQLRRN

Row | gMFI [1] | % Positive [2] | gMFI [2] | Jurkat WT/KO (Fold) [3] | gMFI [4] | Jurkat WT/KO (Fold) [5] | % Positive [6] | gMFI [6] | Binder
1 | 1920 gMFI | 1.5% | 1920 gMFI | 1 fold | 2040 gMFI | 0.8 fold | 1.5% | 1920 gMFI | CD3 × CD33-BspAb121 (bispecific antibody) chain 1: QTVVTQEPSLTVSPGGTVTLTCASSTGAVTSGYYPNWFQQKPGQAPRALIYSTSNKHSWTPARFSGSLLGGKAALTLSGVQPEDEAEYYCLLYYGGAYVFGCGTKVTVLGGGGSGGGGSGGGGSGGGGSEVQLVESGGGLVKPGGSLRLSCAASGFTFSSYSMNWVRQAPGKCLEWVSSISRSGTYIYYADSVKGRFTISRDNAKNSLYLQMNSLRAEDTAVYYCARERWELLYFDYWGQGTLVTVSSDKTHTCPPCPAPEFEGGPSVFLFPPKPKDTLMISRTPEVTCVVVDVSHEDPEVKFNWYVDGVEVHNAKTKPREEQYNSTYRVVSVLTVLHQDWLNGKEYKCKVSNKALPASIEKTISKAKGQPREPQVYTLPPCREEMTKNQVSLWCLVKGFYPSDIAVEWESNGQPENNYKTTPPVLDSDGSFFLYSKLTVDKSRWQQGNVFSCSVMHEALHNHYTQKSLSLSPGK chain 2: EVQLVQSGAEVKKPGSSVKVSCKASGYTITDSNIHWVRQAPGQSLEWIGYIYPYNGGTDYNQKFKNRATLTVDNPTNTAYMELSSLRSEDTAFYYCVNGNPWLAYWGQGTLVTVSSASTKGPSVFPLAPSSKSTSGGTAALGCLVKDYFPEPVTVSWNSGALTSGVHTFPAVLQSSGLYSLSSVVTVPSSSLGTQTYICNVNHKPSNTKVDKRVEPKSCDKTHTCPPCPAPEFEGGPSVFLFPPKPKDTLMISRTPEVTCVVVDVSHEDPEVKFNWYVDGVEVHNAKTKPREEQYNSTYRVVSVLTVLHQDWLNGKEYKCKVSNKALPASIEKTISKAKGQPREPQVCTLPPSREEMTKNQVSLSCAVKGFYPSDIAVEWESNGQPENNYKTTPPVLDSDGSFFLVSKLTVDKSRWQQGNVFSCSVMHEALHNRFTQKSLSLSPGK chain 3: DIQLTQSPSTLSASVGDRVTITCRASESLDNYGIRFLTWFQQKPGKAPKLLMYAASNQGSGVPSRFSGSGSGTEFTLTISSLQPDDFATYYCQQTKEVPWSFGQGTKVEVKRTVAAPSVFIFPPSDEQLKSGTASVVCLLNNFYPREAKVQWKVDNALQSGNSQESVTEQDSKDSTYSLSSTLTLSKADYEKHKVYACEVTHQGLSSPVTKSFNRGEC
2 | 1680 gMFI | 1.4% | 1920 gMFI | 0.8 fold | 1710 gMFI | 0.9 fold | 1.8% | 1860 gMFI | CD3 × CD33-BspAb123 (bispecific antibody) chain 1: QTVVTQEPSFSVSPGGTVTLTCGLNSGSVSTSYYPSWYQQTPGQTPRTLIYSTNTRSSGVPDRFSGSILGNKAALTITGAQADDESDYYCVLYMGSGIWVFGCGTKLTVLGGGGSGGGGSGGGGSGGGGSQVQLVQSGAEVKKPGASLKVSCKASGYTFTSYYMHWVRQAPGQCLEWMGIINPSNGNTISAQKFQGRVTMTRDTSTSTVYMEMSSLRSEDTAVYYCVRSWGYYVMDVWGQGTTVTVSSDKTHTCPPCPAPEFEGGPSVFLFPPKPKDTLMISRTPEVTCVVVDVSHEDPEVKFNWYVDGVEVHNAKTKPREEQYNSTYRVVSVLTVLHQDWLNGKEYKCKVSNKALPASIEKTISKAKGQPREPQVYTLPPCREEMTKNQVSLWCLVKGFYPSDIAVEWESNGQPENNYKTTPPVLDSDGSFFLYSKLTVDKSRWQQGNVFSCSVMHEALHNHYTQKSLSLSPGK chain 2: EVQLVQSGAEVKKPGSSVKVSCKASGYTITDSNIHWVRQAPGQSLEWIGYIYPYNGGTDYNQKFKNRATLTVDNPTNTAYMELSSLRSEDTAFYYCVNGNPWLAYWGQGTLVTVSSASTKGPSVFPLAPSSKSTSGGTAALGCLVKDYFPEPVTVSWNSGALTSGVHTFPAVLQSSGLYSLSSVVTVPSSSLGTQTYICNVNHKPSNTKVDKRVEPKSCDKTHTCPPCPAPEFEGGPSVFLFPPKPKDTLMISRTPEVTCVVVDVSHEDPEVKFNWYVDGVEVHNAKTKPREEQYNSTYRVVSVLTVLHQDWLNGKEYKCKVSNKALPASIEKTISKAKGQPREPQVCTLPPSREEMTKNQVSLSCAVKGFYPSDIAVEWESNGQPENNYKTTPPVLDSDGSFFLVSKLTVDKSRWQQGNVFSCSVMHEALHNRFTQKSLSLSPGK chain 3: DIQLTQSPSTLSASVGDRVTITCRASESLDNYGIRFLTWFQQKPGKAPKLLMYAASNQGSGVPSRFSGSGSGTEFTLTISSLQPDDFATYYCQQTKEVPWSFGQGTKVEVKRTVAAPSVFIFPPSDEQLKSGTASVVCLLNNFYPREAKVQWKVDNALQSGNSQESVTEQDSKDSTYSLSSTLTLSKADYEKHKVYACEVTHQGLSSPVTKSFNRGEC

More lines, now with the values behind:

Row | Binder | gMFI [1] | % Positive [2] | gMFI [2] | Jurkat WT/KO (Fold) [3] | gMFI [4] | Jurkat WT/KO (Fold) [5] | % Positive [6] | gMFI [6]
3 | CD3 × CD33-BspAb124 (bispecific antibody) chain 1: not shown chain 2: EVQLVQSGAEVKKPGSSVKVSCKASGYTITDSNIHWVRQAPGQSLEWIGYIYPYNGGTDYNQKFKNRATLTVDNPTNTAYMELSSLRSEDTAFYYCVNGNPWLAYWGQGTLVTVSSASTKGPSVFPLAPSSKSTSGGTAALGCLVKDYFPEPVTVSWNSGALTSGVHTFPAVLQSSGLYSLSSVVTVPSSSLGTQTYICNVNHKPSNTKVDKRVEPKSCDKTHTCPPCPAPEFEGGPSVFLFPPKPKDTLMISRTPEVTCVVVDVSHEDPEVKFNWYVDGVEVHNAKTKPREEQYNSTYRVVSVLTVLHQDWLNGKEYKCKVSNKALPASIEKTISKAKGQPREPQVCTLPPSREEMTKNQVSLSCAVKGFYPSDIAVEWESNGQPENNYKTTPPVLDSDGSFFLVSKLTVDKSRWQQGNVFSCSVMHEALHNRFTQKSLSLSPGK chain 3: DIQLTQSPSTLSASVGDRVTITCRASESLDNYGIRFLTWFQQKPGKAPKLLMYAASNQGSGVPSRFSGSGSGTEFTLTISSLQPDDFATYYCQQTKEVPWSFGQGTKVEVKRTVAAPSVFIFPPSDEQLKSGTASVVCLLNNFYPREAKVQWKVDNALQSGNSQESVTEQDSKDSTYSLSSTLTLSKADYEKHKVYACEVTHQGLSSPVTKSFNRGEC | 1800 gMFI | 1% | 1970 gMFI | 0.9 fold | 1790 gMFI | 0.9 fold | 1.5% | 1950 gMFI
4 | CD3 × CD33-BspAb125 (bispecific antibody) chain 1: not shown chain 2: EVQLVQSGAEVKKPGSSVKVSCKASGYTITDSNIHWVRQAPGQSLEWIGYIYPYNGGTDYNQKFKNRATLTVDNPTNTAYMELSSLRSEDTAFYYCVNGNPWLAYWGQGTLVTVSSASTKGPSVFPLAPSSKSTSGGTAALGCLVKDYFPEPVTVSWNSGALTSGVHTFPAVLQSSGLYSLSSVVTVPSSSLGTQTYICNVNHKPSNTKVDKRVEPKSCDKTHTCPPCPAPEFEGGPSVFLFPPKPKDTLMISRTPEVTCVVVDVSHEDPEVKFNWYVDGVEVHNAKTKPREEQYNSTYRVVSVLTVLHQDWLNGKEYKCKVSNKALPASIEKTISKAKGQPREPQVCTLPPSREEMTKNQVSLSCAVKGFYPSDIAVEWESNGQPENNYKTTPPVLDSDGSFFLVSKLTVDKSRWQQGNVFSCSVMHEALHNRFTQKSLSLSPGK chain 3: DIQLTQSPSTLSASVGDRVTITCRASESLDNYGIRFLTWFQQKPGKAPKLLMYAASNQGSGVPSRFSGSGSGTEFTLTISSLQPDDFATYYCQQTKEVPWSFGQGTKVEVKRTVAAPSVFIFPPSDEQLKSGTASVVCLLNNFYPREAKVQWKVDNALQSGNSQESVTEQDSKDSTYSLSSTLTLSKADYEKHKVYACEVTHQGLSSPVTKSFNRGEC | 3680 gMFI | 95.4% | 28700 gMFI | 5.3 fold | 13700 gMFI | 1.5 fold | 42.2% | 6020 gMFI
5 | CD3 × CD33-BspAb122 (bispecific antibody) chain 1: QTVVTQEPSFSVSPGGTVTLTCGLSSGSVSTSYYPSWYQQTPGQAPRTLIYSTNTRSSGVPDRFSGSILGNKAALTITGAQADDESDYYCVLYMGSGIWVFGCGTKLTVLGGGGSGGGGSGGGGSGGGGSEVQLVESGGGLVKPGGSLRLSCAASGFTVSNYSMNWVRQAPGKCLEWVSSISRSSSYIYYADSVKGRFTISRDNAKNSLFLQMNSLRAEDTAVYYCARERWELLYFDYWGQGTLVTVSSDKTHTCPPCPAPEFEGGPSVFLFPPKPKDTLMISRTPEVTCVVVDVSHEDPEVKFNWYVDGVEVHNAKTKPREEQYNSTYRVVSVLTVLHQDWLNGKEYKCKVSNKALPASIEKTISKAKGQPREPQVYTLPPCREEMTKNQVSLWCLVKGFYPSDIAVEWESNGQPENNYKTTPPVLDSDGSFFLYSKLTVDKSRWQQGNVFSCSVMHEALHNHYTQKSLSLSPGK chain 2: EVQLVQSGAEVKKPGSSVKVSCKASGYTITDSNIHWVRQAPGQSLEWIGYIYPYNGGTDYNQKFKNRATLTVDNPTNTAYMELSSLRSEDTAFYYCVNGNPWLAYWGQGTLVTVSSASTKGPSVFPLAPSSKSTSGGTAALGCLVKDYFPEPVTVSWNSGALTSGVHTFPAVLQSSGLYSLSSVVTVPSSSLGTQTYICNVNHKPSNTKVDKRVEPKSCDKTHTCPPCPAPEFEGGPSVFLFPPKPKDTLMISRTPEVTCVVVDVSHEDPEVKFNWYVDGVEVHNAKTKPREEQYNSTYRVVSVLTVLHQDWLNGKEYKCKVSNKALPASIEKTISKAKGQPREPQVCTLPPSREEMTKNQVSLSCAVKGFYPSDIAVEWESNGQPENNYKTTPPVLDSDGSFFLVSKLTVDKSRWQQGNVFSCSVMHEALHNRFTQKSLSLSPGK chain 3: DIQLTQSPSTLSASVGDRVTITCRASESLDNYGIRFLTWFQQKPGKAPKLLMYAASNQGSGVPSRFSGSGSGTEFTLTISSLQPDDFATYYCQQTKEVPWSFGQGTKVEVKRTVAAPSVFIFPPSDEQLKSGTASVVCLLNNFYPREAKVQWKVDNALQSGNSQESVTEQDSKDSTYSLSSTLTLSKADYEKHKVYACEVTHQGLSSPVTKSFNRGEC | 1910 gMFI | 1% | 2020 gMFI | 1 fold | 1980 gMFI | 0.8 fold | 1.9% | 2080 gMFI
